This is an account of results in IntAct's records for PubMed 29263825.

B1: Cohesin subunit SA-2 (Homo sapiens), Q8N3U4 (parent)
chain: MIAAPEIPTDFNLLQESETHFSSDTDFEDIEGKNQKQGKGKTCKKGKKGPAEKGKGGNGGGKPPSGPNRMNGHHQQNGVENMMLFEVVKMGKSAMQSVVDDWIESYKHDRDIALLDLINFFIQCSGCKGVVTAEMFRHMQNSEIIRKMTEEFDEDSGDYPLTMAGPQWKKFKSSFCEFIGVLVRQCQYSIIYDEYMMDTVISLLTGLSDSQVRAFRHTSTLAAMKLMTALVNVALNLSINMDNTQRQYEAERNKMIGKRANERLELLLQKRKELQENQDEIENMMNAIFKGVFVHRYRDAIAEIRAICIEEIGIWMKMYSDAFLNDSYLKYVGWTMHDKQGEVRLKCLTALQGLYYNKELNSKLELFTSRFKDRIVSMTLDKEYDVAVQAIKLLTLVLQSSEEVLTAEDCENVYHLVYSAHRPVAVAAGEFLYKKLFSRRDPEEDGMMKRRGRQGPNANLVKTLVFFFLESELHEHAAYLVDSMWDCATELLKDWECMNSLLLEEPLSGEEALTDRQESALIEIMLCTIRQAAECHPPVGRGTGKRVLTAKEKKTQLDDRTKITELFAVALPQLLAKYSVDAEKVTNLLQLPQYFDLEIYTTGRLEKHLDALLRQIRNIVEKHTDTDVLEACSKTYHALCNEEFTIFNRVDISRSQLIDELADKFNRLLEDFLQEGEEPDEDDAYQVLSTLKRITAFHNAHDLSKWDLFACNYKLLKTGIENGDMPEQIVIHALQCTHYVILWQLAKITESSSTKEDLLRLKKQMRVFCQICQHYLTNVNTTVKEQAFTILCDILMIFSHQIMSGGRDMLEPLVYTPDSSLQSELLSFILDHVFIEQDDDNNSADGQQEDEASKIEALHKRRNLLAAFCKLIVYTVVEMNTAADIFKQYMKYYNDYGDIIKETMSKTRQIDKIQCAKTLILSLQQLFNEMIQENGYNFDRSSSTFSGIKELARRFALTFGLDQLKTREAIAMLHKDGIEFAFKEPNPQGESHPPLNLAFLDILSEFSSKLLRQDKRTVYVYLEKFMTFQMSLRREDVWLPLMSYRNSLLAGGDDDTMSVISGISSRGSTVRSKKSKPSTGKRKVVEGMQLSLTEESSSSDSMWLSREQTLHTPVMMQTPQLTSTIMREPKRLRPEDSFMSVYPMQTEHHQTPLDYNRRGTSLMEDDEEPIVEDVMMSSEGRIEDLNEGMDFDTMDIDLPPSKNRRERTELKPDFFDPASIMDESVLGVSMF
partner: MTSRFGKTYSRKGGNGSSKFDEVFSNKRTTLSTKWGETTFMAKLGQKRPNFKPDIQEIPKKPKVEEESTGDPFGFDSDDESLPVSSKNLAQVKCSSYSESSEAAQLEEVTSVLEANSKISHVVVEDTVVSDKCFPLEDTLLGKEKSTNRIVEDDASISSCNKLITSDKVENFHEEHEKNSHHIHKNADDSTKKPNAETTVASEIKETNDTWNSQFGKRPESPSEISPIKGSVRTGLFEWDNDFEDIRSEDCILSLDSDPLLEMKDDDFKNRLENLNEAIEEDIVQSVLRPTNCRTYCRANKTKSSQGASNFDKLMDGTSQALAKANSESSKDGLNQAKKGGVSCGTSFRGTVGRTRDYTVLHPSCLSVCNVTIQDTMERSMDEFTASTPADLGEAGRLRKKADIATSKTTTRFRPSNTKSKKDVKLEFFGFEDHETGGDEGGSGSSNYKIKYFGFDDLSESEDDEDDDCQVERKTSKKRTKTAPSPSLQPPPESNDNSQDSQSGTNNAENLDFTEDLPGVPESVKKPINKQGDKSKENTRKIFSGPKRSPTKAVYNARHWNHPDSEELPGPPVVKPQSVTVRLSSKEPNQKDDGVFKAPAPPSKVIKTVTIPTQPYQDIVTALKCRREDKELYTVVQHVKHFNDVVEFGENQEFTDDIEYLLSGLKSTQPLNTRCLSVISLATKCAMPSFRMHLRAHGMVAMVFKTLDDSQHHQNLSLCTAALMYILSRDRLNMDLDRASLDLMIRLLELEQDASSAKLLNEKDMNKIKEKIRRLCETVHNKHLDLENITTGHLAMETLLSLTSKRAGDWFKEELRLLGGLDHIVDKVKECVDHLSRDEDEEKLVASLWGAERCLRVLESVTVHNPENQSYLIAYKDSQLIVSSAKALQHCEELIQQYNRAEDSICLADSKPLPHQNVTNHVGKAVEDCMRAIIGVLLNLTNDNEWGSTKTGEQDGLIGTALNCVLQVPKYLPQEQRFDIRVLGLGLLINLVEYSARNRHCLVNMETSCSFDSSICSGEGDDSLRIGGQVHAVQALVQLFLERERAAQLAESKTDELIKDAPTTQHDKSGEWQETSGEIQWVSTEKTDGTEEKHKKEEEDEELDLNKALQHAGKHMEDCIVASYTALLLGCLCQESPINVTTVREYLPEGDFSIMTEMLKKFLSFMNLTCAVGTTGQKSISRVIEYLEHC
B2: Cohesin subunit SA-2 (Homo sapiens), Q8N3U4 (parent)
chain: B1 chain
B3: Cohesin subunit SA-2 (Homo sapiens), Q8N3U4 (parent)
chain: B1 chain
partner: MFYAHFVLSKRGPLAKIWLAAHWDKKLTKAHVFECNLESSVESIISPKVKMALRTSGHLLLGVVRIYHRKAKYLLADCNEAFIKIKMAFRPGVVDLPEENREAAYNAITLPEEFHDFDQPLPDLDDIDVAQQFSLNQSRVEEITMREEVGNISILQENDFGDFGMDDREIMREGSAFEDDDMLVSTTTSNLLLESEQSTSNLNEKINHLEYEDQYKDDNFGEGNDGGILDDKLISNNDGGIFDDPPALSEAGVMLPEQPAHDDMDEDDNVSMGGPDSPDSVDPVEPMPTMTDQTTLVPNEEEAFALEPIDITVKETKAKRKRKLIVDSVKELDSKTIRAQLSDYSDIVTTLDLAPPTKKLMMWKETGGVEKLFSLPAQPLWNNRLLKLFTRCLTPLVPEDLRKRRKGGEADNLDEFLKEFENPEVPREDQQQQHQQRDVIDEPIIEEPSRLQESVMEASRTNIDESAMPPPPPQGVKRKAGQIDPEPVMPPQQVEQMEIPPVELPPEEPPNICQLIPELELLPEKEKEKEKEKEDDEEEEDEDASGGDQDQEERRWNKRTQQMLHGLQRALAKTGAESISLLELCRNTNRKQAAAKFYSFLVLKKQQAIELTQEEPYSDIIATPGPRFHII

Variants of B1 are the subject of the first assay. Conditions: with wapl_human WAPL.
Regarding S327N, the “effect of a mutation on the interaction” value is recorded as “with no effect”.
The same measure, in the same setting: next, K330E: “decreasing interaction”.

The variants in another assay derive from B2. As to conditions: with sgo1_human SGO1, Q5FBB7.
Sequence of sgo1_human SGO1, Q5FBB7 (Q5FBB7 whole entry): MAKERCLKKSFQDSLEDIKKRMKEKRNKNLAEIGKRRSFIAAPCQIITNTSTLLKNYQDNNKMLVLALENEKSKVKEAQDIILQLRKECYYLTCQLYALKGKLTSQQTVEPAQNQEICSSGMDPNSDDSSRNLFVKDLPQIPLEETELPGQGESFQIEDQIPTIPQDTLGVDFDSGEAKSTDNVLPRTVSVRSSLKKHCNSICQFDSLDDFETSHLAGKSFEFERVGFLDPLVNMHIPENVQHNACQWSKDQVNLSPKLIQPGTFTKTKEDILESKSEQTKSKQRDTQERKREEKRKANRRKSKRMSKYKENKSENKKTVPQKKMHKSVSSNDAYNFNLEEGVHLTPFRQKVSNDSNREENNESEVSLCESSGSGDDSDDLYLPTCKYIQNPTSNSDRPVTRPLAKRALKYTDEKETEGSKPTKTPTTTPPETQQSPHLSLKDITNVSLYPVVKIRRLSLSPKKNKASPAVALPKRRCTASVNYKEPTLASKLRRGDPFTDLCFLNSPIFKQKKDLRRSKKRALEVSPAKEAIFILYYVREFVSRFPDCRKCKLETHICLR
For S327N, the “effect of a mutation on the interaction” value is listed as “decreasing interaction”.
The same measure, in the same setting: next, K330E: “disrupting interaction”.

The variants in a further assay derive from B3. Conditions: with rad21_human RAD21, O60216.
S327N: the “effect of a mutation on the interaction” value is on record as “with no effect”.
